For orientation: Kd means a measure of binding affinity in units of concentration.

The target in assay [1] is HLA-A*01:01. Description: IEDB peptide-MHC binding, purified MHC/direct/fluorescence; filed as Kd, often an IC50 or EC50 that approximates it; ≥ and ≤ were set here for values at or beyond the usual limits of such assays.
Assay [2] has as its target HLA-A*02:01. The assay is described as above.
In assay [3] the target is HLA-A*03:01. The description is as above.
Assay [4] has as its target HLA-A*11:01. The description is as above.
Assay [5] deals with HLA-A*26:01. Described as above. Conditions: source organism: Corynebacterium glutamicum.
The target in assay [6] is HLA-A*31:01. The description is as above.
Assay [7] addresses HLA-A*69:01. The description is as above.
Assay [8] deals with HLA-B*07:02. Described as above. Conditions: source organism: Corynebacterium glutamicum.
For assay [9], the target named is HLA-B*08:01. The description is as above.
The target in assay [10] is HLA-B*15:01. The assay is described as above.
In assay [11] the target is HLA-B*27:05. Described as above.
The target in assay [12] is HLA-B*40:01. Described as above.
Assay [13] addresses HLA-B*58:01. The description is as above.
The target of assay [14] is HLA-B*15:42. In words: IEDB peptide-MHC binding, purified MHC/competitive/fluorescence; filed as Kd, often an IC50 or EC50 that approximates it; ≥ and ≤ were set here for values at or beyond the usual limits of such assays.
Assay [15] concerns the target HLA-B*45:06. The description is as above.
For assay [16], the target named is HLA-B*83:01. Described as above.
Assay [17] concerns the target HLA-B*08:02. Description: IEDB peptide-MHC binding, purified MHC/direct/fluorescence; filed as Kd, often an IC50 or EC50 that approximates it; ≥ and ≤ were set here for values at or beyond the usual limits of such assays. Particulars: source organism: Mycobacterium tuberculosis str. Haarlem.
Assay [18] deals with HLA-B*18:01. Described as above. Conditions: source organism: Mycobacterium tuberculosis.
Assay [19] deals with HLA-B*46:01. The description is as above. Conditions: source organism: Mycobacterium tuberculosis.
The target of assay [20] is HLA-B*48:01. Described as above. Conditions: source organism: Mycobacterium tuberculosis.
Assay [21] concerns the target HLA-B*51:01. The description is as above.
In assay [22] the target is HLA-B*57:01. The description is as above. Conditions: source organism: Mycobacterium tuberculosis.
For assay [23], the target named is HLA-A*30:01. In words: IEDB peptide-MHC binding, purified MHC/competitive/fluorescence; filed as Kd, often an IC50 or EC50 that approximates it; ≥ and ≤ were set here for values at or beyond the usual limits of such assays. Particulars: source organism: Mycobacterium tuberculosis C.
Assay [24] deals with HLA-B*15:01. The description is as above.
Assay [25] concerns the target HLA-B*15:17. Description: IEDB peptide-MHC binding, purified MHC/direct/fluorescence; filed as Kd, often an IC50 or EC50 that approximates it; ≥ and ≤ were set here for values at or beyond the usual limits of such assays. Conditions: source organism: Mycobacterium tuberculosis.
Assay [26] has as its target HLA-C*12:03. The assay is described as above.
The target of assay [27] is HLA-B*51:01. Description: IEDB peptide-MHC binding, purified MHC/competitive/fluorescence; filed as Kd, often an IC50 or EC50 that approximates it; ≥ and ≤ were set here for values at or beyond the usual limits of such assays. Particulars: source organism: Vibrio vulnificus CMCP6.
Assay [28] has as its target HLA-B*58:01. Description: IEDB peptide-MHC binding, purified MHC/competitive/radioactivity; filed as Kd, often an IC50 or EC50 that approximates it; ≥ and ≤ were set here for values at or beyond the usual limits of such assays.
The target in assay [29] is HLA-B*57:01. The assay is described as above.
Assay [30] has as its target HLA-A*30:01. Described as above. Conditions: source organism: Dengue virus 1 Brazil/97-11/1997.
For assay [31], the target named is HLA-A*32:01. The assay is described as above. Particulars: source organism: Dengue virus 2 Jamaica/1409/1983.
For assay [32], the target named is HLA-A*02:01. Description: IEDB peptide-MHC binding, purified MHC/competitive/fluorescence; filed as Kd, often an IC50 or EC50 that approximates it; ≥ and ≤ were set here for values at or beyond the usual limits of such assays. Particulars: source organism: Salmonella enterica subsp. enterica serovar Typhi.
Assay [33] addresses HLA-B*39:01. The description is as above. Conditions: source organism: Salmonella enterica subsp. enterica serovar Typhi.
For assay [34], the target named is HLA-A*01:01. Description: IEDB peptide-MHC binding, purified MHC/competitive/radioactivity; filed as Kd, often an IC50 or EC50 that approximates it; ≥ and ≤ were set here for values at or beyond the usual limits of such assays. Conditions: source organism: Dengue virus 1 Brazil/97-11/1997.
The target in assay [35] is HLA-A*26:01. Described as above. Conditions: source organism: Dengue virus 1 Brazil/97-11/1997.
Assay [36] deals with HLA-A*68:02. The description is as above. Particulars: source organism: Dengue virus 1 Brazil/97-11/1997.
The mark [37] stands for this setting: source organism: Corynebacterium glutamicum.
[38] abbreviates: source organism: Corynebacterium glutamicum ATCC 13032.
Where [39] appears, read: source organism: Mycobacterium tuberculosis.
The mark [40] stands for this setting: source organism: Mycobacterium tuberculosis str. Haarlem.
The mark [41] stands for this setting: source organism: Mycobacterium tuberculosis C.
Where [42] appears, read: source organism: Dengue virus 3 Martinique/1243/1999.
The mark [43] stands for this setting: source organism: Dengue virus 2 Jamaica/1409/1983.
Setting [44] is: source organism: Dengue virus 1 Brazil/97-11/1997.
Where [45] appears, read: source organism: Dengue virus 1 Singapore/S275/1990.
Where [46] appears, read: source organism: West Nile virus.

With AEHDPWWAV, the Kd in assay [1] (setting [37]), in assay [2] (setting [37]), in [3] (setting [37]), in [4] (setting [37]), in assay [5] and in assay [6] (setting [37]) was no less than 20 µM in each case. Besides, the Kd in [7] (setting [37]) was no less than 20 µM; in assay [8], 8.99 µM; in [9] (setting [37]), no less than 20 µM; in assay [10] (setting [37]), no less than 20 µM; in assay [11] (setting [37]), no less than 20 µM; in [12] (setting [37]) it was 0.0549 µM. The Kd was no less than 20 µM in assay [13] (setting [37]), no less than 5 µM in [14] (setting [38]), no less than 5 µM in assay [15] (setting [38]) and no less than 5 µM in [16] (setting [38]).

Regarding APRARTAAF, the Kd in [1] (setting [39]), in [2] (setting [39]), in assay [3] (setting [39]), in [4] (setting [39]), in assay [6] (setting [39]) and in assay [7] (setting [39]) was no less than 20 µM in each case. Besides, the Kd is 0.005 µM in assay [9] (setting [40]); 0.23 µM in assay [17]; 12.3 µM in assay [18]; no less than 20 µM in [11] (setting [39]); no less than 20 µM in [12] (setting [39]); no less than 20 µM in assay [19]. The Kd in [20], in assay [21] (setting [39]), in [22], in assay [13] (setting [39]), in assay [23] and in assay [24] (setting [41]) was no less than 20 µM each time. Further, the Kd in assay [14] (setting [41]) was no less than 5 µM; in assay [15] (setting [41]), no less than 5 µM; in assay [16] (setting [41]) it was 0.0526 µM.

In the case of APRGFRAAF, the Kd in assay [1] (setting [39]), in [2] (setting [39]), in assay [3] (setting [39]), in assay [4] (setting [39]), in assay [6] (setting [39]) and in [7] (setting [39]) was no less than 20 µM each time. In addition, the Kd in [9] (setting [40]) was 0.1 µM; in assay [10] (setting [39]), no less than 20 µM; in [25], 5.45 µM; in assay [18], no less than 20 µM; in assay [11] (setting [39]), no less than 20 µM; in assay [12] (setting [39]), no less than 20 µM. The Kd in assay [19] is no less than 20 µM; in [20], no less than 20 µM; in [21] (setting [39]), no less than 20 µM; in assay [22], no less than 20 µM; in assay [13] (setting [39]), no less than 20 µM; in assay [14] (setting [41]) it was no less than 5 µM. Moreover, the Kd in assay [15] (setting [41]) is no less than 5 µM; in assay [16] (setting [41]), 0.038 µM.

As for FAFHTVFHI, the Kd in assay [26] (source organism: Vibrio vulnificus CMCP6) was no more than 0.001 µM; in [27], 0.0429 µM.

For FSLENVRLM, the Kd in [26] (source organism: Leishmania panamensis) was 0.772 µM.

Regarding GAVFQEEQGW, in [28] (source organism: Dengue virus 4 Philippines/H241/1956), the Kd turned out to be 0.0185 µM.

For IASAIVLEFF, the Kd in [29] (setting [42]) was determined as 0.883 µM; in [28] (setting [42]) it was 0.021 µM.

In the case of KSIEDNPEI, the Kd in assay [28] (setting [43]) worked out at 0.00548 µM.

Take KVRKDIPQW: the figures for the Kd in [30], in assay [29] (setting [44]) and in assay [28] (setting [44]) were 0.254 µM, 0.0355 µM and 0.00597 µM, respectively.

In the case of NASDRMGMGT, the Kd in assay [29] (setting [45]) turned out to be 0.652 µM; in [28] (setting [45]) it was 5.12 µM.

Take RAVHADMGYW: the Kd in assay [28] (setting [43]) was found to be 0.000235 µM.

With RVYSDHQAL, the Kd is no less than 20 µM in assay [21] (setting [46]) and 0.65 µM in assay [26] (setting [46]).

Regarding TASILLWYAQ, the Kd is no less than 33.1 µM in assay [31], 0.029 µM in [29] (setting [43]) and 1.01 µM in assay [28] (setting [43]).

With TQFAGVVTV, the Kd in assay [26] (source organism: Salmonella enterica subsp. enterica serovar Typhi str. CT18) was 0.003 µM; in assay [32], 0.0005 µM; in assay [24] (source organism: Salmonella enterica subsp. enterica serovar Typhi) it was 0.212 µM; in assay [33] it was 0.0017 µM.

As to TTSGTYVSAI, the Kd is no less than 70.4 µM in [34], 17 µM in assay [35], 0.0205 µM in assay [36] and 0.179 µM in assay [29] (setting [44]).

In the case of VASEGIKYTD, the Kd in assay [29] (setting [42]) is 5.16 µM; in assay [28] (setting [42]), 0.34 µM.

In turn, YLQQNTHTL had a Kd in assay [26] (source organism: Homo sapiens) of 0.09 µM.

Values taken from the Immune Epitope Database (IEDB).
